Experimental data as given in the DeepSol protein solubility set.

Assay: soluble on expression in E. coli; label from the status in PepcDB or PDB records

Sequence	soluble on expression in E. coli
MSLWLPSEATVYLPPVPVSKVVSTDEYVARTNIYYHAGTSRLLAVGHPYFPIKKPNNNKILVPKVSGLQYRVFRIHLPDPNKFGFPDTSFYNPDTQRLVWACVGVEVGRGQPLGVGISGHPLLNKLDDTENASAYAANAGVDNRECISMDYKQTQLCLIGCKPPIGEHWGKGSPCTQVAVQPGDCPPLELINTVIQDGDMVDTGFGAMDFTTLQANKSEVPLDICTSICKYPDYIKMVSEPYGDSLFFYLRREQMFVRHLFNRAGTVGENVPDDLYIKGSGSTANLASSNYFPTPSGSMVTSDAQIFNKPYWLQRAQGHNNGICWGNQLFVTVVDTTRSTNMSLCAAISTSETTYKNTNFKEYLRHGEEYDLQFIFQLCKITLTADVMTYIHSMNSTILEDWNFGLQPPPGGTLEDTYRFVTSQAIACQKHTPPAPKEDPLKKYTFWEVNLKEKFSADLDQFPLGRKFLLQLGLKAKPKFTLGKRKATPTTSSTSTTAKRKKRKL	soluble
MSLYAAYAGNLDARLMTRRAPHSPLRATGWLNGWRLTFGGEHMGWEGALATLVEDPISQVFVSLYDIAPMDEDSLDRWEGVGLDIYRRTRVRIHTLDGEEGAWTYVLNAYEGGLPSARYLGEIADAAESSGAPHDYVMELRKRPCLEHHHHHH	not soluble
MSLYAAYAGNLDPRLMTRRAPHSPLRATGWLNDWRLTFGGEHMGWEGALATIVEAPRSQVFVALYDIAPMDEDSMDRWEGVGLDIYRRMRVRVHTLEGEEAAWVYVLNGYEGGLPSARYLGELADAAESAGAPHDYVMELRKRPCLEHHHHHH	soluble
MSLYIETVRGKIKPEEFGVCACHEHLHIDLSRIKNDSDTALVEVALVLSDLKSFVSHGGQAIVDVTNDGMGRDVEKLVVMSEALDLHIVASTGCYKDPFIPEEKQMWTREQFAEWMIDEIMYGISGTTVKPGVIGEIGSSLNEFKPVELELFYGAIEAAKTTKLPLSTHTTLGTLAMEQIRLFDSESLPLDQVIIGHQDLNDDDEQVLKVLSTGAYVALDTIGKENYRSDEARLNSLLLFLEKGYEDQLLLSSDVTRTSHLLVHGGQGYDVVLRSFIPKLRAKGADEATIQKLLVKTHKKHLASREGHHHHHH	not soluble
MSLYISSALGPVDSGNKKEIEVEIPKGSSTSKIGEILEEKGAVKSGTVFSFYTKAKSKNLQAGTYLLNPSMSAKDVMEQMSSGNVHRPALYKVTIKEGAQVTEIAETVANELKWNKDDVVRQLNDKAFIQKMQQKYPKLLTDKIFDSNIKYPLEGYLYPATYSFYKKDTTLEEVVIPMLEKTNAIIVQNEAKMKAKNWDVHQLLTLSSLIEEEATGFTDRQKISSVFYNRLAKGMPLQTDPTVLYALGKHKQRVLYEDLKVNSPYNTYVVKGLPVGPIANSGKHSVEAALEPTQTDYYYFLAAPTGEVYYAKTLEEHNALKQKYITKKQEGHHHHHH	soluble
MSLYKGYLIDLDGTIYKGKDRIPAGETFVHELQKRDIPYLFVTNNTTRTPESVKEMLAQNFNIDTPLSTVYTATLATIDYMNDLGLEKTVYVVGEAGLKEAIKAAGYVEDKEKPAYVVVGLDWQVDYEKFATATLAIQKGAHFIGTNPDLNIPTERGLLPGAGSLITLLEVATRVKPVYIGKPNAIIMDKAVEHLGLEREELIMVGDNYLTDIRAGIDNGIPTLLVTTGFTKAEEVAGLPIAPTHVVSSLAEWDFDENEGHHHHHH	soluble
MSLYKIDFSKGLVPAILQDNQTKQVLMLGYMNQEAFDKTIEDGVVCFYSRSKQRLWTKGETSGHTQLVKDIHVDCDNDTILIDVIPNGPTCHTGSQSCFNTEVPFSVQTLAQTVQDSAQSNNEKSYTKYLLTEGIEKITKKYGEEAFEVVIEAIKGDKKAFVSEVADELYHLFVLMHALGVDFSEIEAELARRHHKRNNFKGERQNIEQWEGHHHHHH	soluble
MSLYKKYLLLGVSLCMLNACNESKSVSLEGSLDGIQADSIYLYQVDNEHYGSVKLIKSIAVTDGRFAYPTDSIQAGLYCFSLQNMERGEYLQQYANLFLEPKSMQLTLGKDKYDQLSLHATGSALQEQYEALQEAKYVAGNRMVLDSLDHMFYEAREKGDREEMERIREVSSPYYESASEQTRKLINGEIAKNKGSYFGLYLYYTYRFQNHTFNTVEEIDEARNFIGSFDEASRRSGIYVKMQEGLDKFARCATGSVAPAITGIDLKGNSVSLNDFKGKYVLVDFWFAGCSWCRKETPYLLKTYNAFKDKGFTIYGVSTDRREEDWKKAIEEDKSYWNQVLLQKDDVKDVLESYCIVGFPHIILVDPEGKIVAKELRGDDLYNTVEKFVNGAKEGHHHHHH	soluble
MSLYKLIALDMDGTLLNSQKQISPRTKQAIAQARQQGIQVVLASGRPLDGMRSKLEELHLTTENDYVLYYNGSMVANVGTGEIIHQQIIDGKAAKRVATLAQEFGLNTHAFSQIHGLITPKTSQYTEVEASINGLNITEMDFAQLADDHPIIKAMIVGEPEKLTQAIAQLPAQWREEFTVVQSAPFFLEFLNTGSNKGIGVQAIAAHLGIQASEVICMGDAENDHHMLQYAGLGIAMANAMEETKHIADHITLSNDHDGVAVAIERFALGCFSEGHHHHHH	soluble
MSLYPGQFAKTRPDHPAFIMASTGETVSYAELEARSNRLAHLLRNHGLQRLDHYSIFMENNNRYIEACAAGERSGYYYTCVNSYLTPAELAYILTNSESRALITSKAKLDVAREALKDCPNVTLCVVVDGDGESERIVGLAEATKNLPDTPIADESLGTAMLYSSGTTGRPKGILRPLPEQPPSEPLPLFHFLNMLWKYRDGMIYLSPAPLYHSAPQAAVGLTIRDGGTVIIMEHFDPEQYLALIGKHKVTHSQLVPTMFSRMLKLPEEARKTYDLSTLEVAIHAAAPCPPQVKEQMIEWWGPIIHEYYGATEGLGFTACNSAEWLAHRGTVGKVMFGDLHILDDGMKPCPKGTPGQIWFKTATPFEYFNDPKKTQEARSEDGSMSTVGDVGYVDDDGYLHLTDRATFMIISGGVNIYPQECENLLITHPKVADAAVFGVPNEDLGEEVKAVVQPMPGVAAGADLAAELIAFCAQSLSRQKVPRSIDFMDELPRLPTGKLYKRLLRDRYWGNKNSREGHHHHHH	soluble
MSLYQAIVFFDLDSTLFDDNKHVLPASVAAIHEMQQHHILPVIATGRNIFEIQYVLDGTGIDSVVGANGSYVQYQGQRLAAAVIAPELLTAVTSFAQRQHDPIAYYTSQGFRLSQANADTTENFQLLRLHPIVDPAWYATHQINFLNVFNRDHDQLYQEKFSGQLTFVRNNPRCLDTMVNGVTKQSGIRTLIQQAGLQGIKTYAFGDGYNDLQMFDEVDVPISMGNGVAAAKEKAAYVTTTNTTDGIVRGLRHFGLIQEGHHHHHH	soluble
MSLYSNESAIQLISLARSIDQLQKIDSVVSFHDGAQLDALTIANALELPFSLSMGAIVNTRDKQLSRRILREKNLTEVQSAIAENEQDLHDFFKIYPQVNKVIVKPVAGTGSENVRSLESKELETANLDNVYPVLVEQFVEGREFSVEAFMQEGKCHIFAITEKFKDAQSFIETGHLVPARLSSDEHEKIAAFIAKVLPALGVVSGITHSEIMLGEKIELIETHTRVGGDRIFDLVQMTTGIDMYRLQALQSLGLPIGEDELTPKLNGKHACIKFKLNDHPGKKVIRVNGEEEIKNWSGVEDVSITHQAGEVLPQIVNSFDRSASVLVLCDSSEQALSIAEEAIQKLEFVVGEGHHHHHH	not soluble
MSMLKIGDIVTRKSHGQDIYFIVTDIQNKDSSKPVYILRGLFYRIIVDAFEDDLVKKDSRSTRINLRRDLTMARSNAYRQIFTSRCFLFSKPRQRPGKVLHIDSSESFLKMCRNLYKEAGITSREYLAPESEQPNIIKRALAETKPDILVVTGHDSLKKGSDPNLLDSYRNSKYFIECVKEARKYQPDYDKLCIFAGACQSYFEAIMQAGANFASSPGRININALDPAIVSEKVALTNKDNYVTPEEVSKLTISGSKGIGGIKTRGHLTVL	soluble
MSNDIEKSIQQWLEKKLEERGHGAQIELAAYLGIHPSTISRMLNPYKNGKSRSISIGELVKIAEFFKVSPPQISSLMLIKNS	not soluble
MSNFMVENQTEQVSIFLEDAINLITNYVNYHTLPSLLEETPAGNERYYKGLLASMRRLLVFCEEGQDACFVLLNSQPFRKTAAEKILYKIYHQVIAEFFSPKSDHWYENSRSAYTGKNSIVFQQTPPASLEQVMKSLEGKFQLMREELEYYETDYQTKMLHKY	not soluble
MSNIITDYSQYNEKQLHNFLNSIEKQLLKAERDKNKAIKKIQECELQERMIRQVLAQKHSQEKEPTPSLLNTIASKDDPEYDVSFGDFNDFLQIAKQERERHNA	not soluble
MSNKIVTLEINLEPSDNRRLASLCGPFDDNIKHLERRLGVEINHRSDHFTIVGKPHTSAAALDILKTLYVDTAPVRGEIPDIEPEQIHLAIKESGVLEQNTESSIAHGKEVFVKTKKGVIKPRTPNQAQYLVNMVTHDISFGIGPAGTGKTYLAVAAAVDALERQEIRRILLTRPAVEAGEKLGFLPGDLSQKVDPYLRPLYDALFEMLGFERVEKLIERNVIEVAPLAYMRGRTLNDAFIILDESQNTTVEQMKMFLTRIGFNSRAVITGDVTQIDLPRGAKSGLRHAIEVLSEVDDISFNFFQADDVVRHPVVARIVNAYEKWEAQDQKERKEFEKRRREERDAKLLEAAKAELSAQVAATKE	not soluble
MSNPYPKQEVTLMLHTANPVIKHKAGLLNLAEELSNVSKACKIMGVSRDTFYRYRELVAEGGVDAQINRSRRAPNLKNRTDEATEQAVVDYAVAFPTHGQHRASNELRKQGVFISDSGVRSVWLLHNLENLKRRYLEHHHHHH	not soluble
MSNQLFDAYFTAPAMREIFSDRGRLQGMLDFEAALARAEASAGLVPHSAVAAIEAACQAERYDTGALANAIATAGNSAIPLVKALGKVIATGVPEAERYVHLGATSQDAMDTGLVLQLRDALDLIEADLGKLADTLSQQALKHADTPLVGRTWLQHATPVTLGMKLAGVLGALTRHRQRLQELRPRLLVLQFGGASGSLAALGSKAMPVAEALAEQLKLTLPEQPWHTQRDRLVEFASVLGLVAGSLGKFGRDISLLMQTEAGEVFEPSAPGKGGSSTMPHKRNPVGAAVLIGAATRVPGLLSTLFAAMPQEHERSLGLWHAEWETLPDICCLVSGALRQAQVIAEGMEVDAARMRRNLDLTQGLVLAEAVSIVLAQRLGRDRAHHLLEQCCQRAVAEQRHLRAVLGDEPQVSAELSGEELDRLLDPAHYLGQARVWVARAVSEHQRFTA	soluble
MSNQSKLNSAAYDQLNKDADRILHLIKVQMDNLTLPSCPLYEEVLDTQMFGLQKEVDFAVQLGLVDKEDGKQLMLRLEKELSKLHEAFTNV	not soluble
MSNRFKFFAAIREYNPEGEVFLRIIGTGSNNNLTYRIMESRLNEVGISLGSFLSAVVPMGEPIRDFVPEERNFKVIIDGIVAMVENIEGNLEKNEEGVLVFSTEDFGLVRALDQKLSPGQYQITVRATKFSERKIFKNMNYCAEAQKIAPLVTATESESIFKRVASFFQKSPEENSLESTSKQANEEKDSSVQDLSMAELIEILPNLDQKSINQPTPAPRSMVGSVGITRTMNALVCDVIHQEKECIHFLWICEIQQISMFASKSHYLSPGKFFEGLFEKKETNWECIRFVGEKKELLKGITDGDKFKVTLTNEQGFPVFTVENLYAKLIAFEGKFVFHNKTFGNAIIGCYRPPGDYKITIKLLPIPFTTPTGKFICFEAIHFESADVLSSSNTNTTENKKKVTEKVKERGIRRPQDPKSKGIQRAVVIRVIEKGNSTDYIVWNLDSKMECIFRSAKHELERGHFFSGKFVKKSDGSLMCTNYVKQIKGFVEGGLDEHENIYFTVPIQNFQAARGNRKYNCAFSEYFGEVLEGKAENTKLSSNCNGKTVNIEWKKIGASGSDEYVWIVSKIF	not soluble
